Laboratory results taken from the RNAGym collection of RNA variant scans (doi:10.1093/molbev/msab373).

B1: Azoarcus group I ribozyme (parent)
chain: GUGCCUUGCGCCGGGAAACCACGCAAGGGAUGGUGUCAAAUUCGGCGAAACCUAAGCGCCCGCCCGGGCGUAUGGCAACGCCGAGCCAAGCUUCGGCGCCUGCGCCGAUGAAGGUGUAGAGACUAGACGGCACCCACCUAAGGCAAACGCUAUGGUGAAGGCAUAGUCCAGGGAGUGGCGAAAGUCACACAAACCGG

Variants of: B1
Experiment: reverse-splicing fitness (ratio to wild type); higher = more active; in vitro selection; Mg2+ level not given
Outline: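 An in vitro group I ribozyme library with randomized positions was T7-transcribed and gel-purified. In triplicate, 10 pmol RNA in EPPS pH 7.5 was reacted with 50 pmoles of a 30-nt RNA substrate for 1 h at 37 °C across several added MgCl2 levels (1–48 mM), then stopped with EDTA. Products were reverse transcribed from a substrate-complementary primer, PCR-amplified and sequenced (HiSeq 4000). Fitness is a variant's read proportion after selection over that before, normalised to wild type.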

Row | Variant | reverse-splicing fitness
1 | GUGCCUUGCGCCGGGAAACCACGCAAGGGAUGGUGUCAAAUUCGGCGAAACCUAAGCGCCCGCCCGGGCGUAUGGCAACGCUGAGCCAAGCUUCGGCGCCUGCGCCGAUGAAGGUGUAGAGACUAGACGGCACCCACCUAAGGCGAACGGUAUGGUGAAGGCAUAGUCGAGGGAGUGGCGAAAGUCACACAAACCGG [C82U A145G C150G C169G] | 0.00814
2 | GUGCCUUGCGCCGGGAAACCACGCAAGGGAUGGUGUCAAAUUCGGCGAAACCUAAGCGCCCGCCCGGGCGUAUGGCAACGCUGAGCCAAGCUUCGGCGCCUGCGCCGAUGAAGGUGUAGAGACUAGACGGCACCCACCUAAGGCGAACGCUAUGGUGAAGGCAUAGUCAAGGGAGUGGCGAAAGUCACACAAACCGG [C82U A145G C169A] | 0.00962
3 | GUGCCUUGCGCCGGGAAACCACGCAAGGGAUGGUGUCAAAUUCGGCGAAACCUAAGCGCCCGCCCGGGCGUAUGGCAACGCUGAGCCAAGCUUCGGCGCCUGCGCCGAUGAAGGUGUAGAGACUAGACGGCACCCACCUAAGGCGAACGGUAUGGUGAAGGCAUAGUCGAGGGAGGGGCGAAAGUCACACAAACCGG [C82U A145G C150G C169G U176G] | 0.00548
4 | GUGCCUUGCGCCGGGAAACCACGCAAGGGAUGGUGUCAAAUUCGGCGAAACCUAAGCGCCCGCCCGGGCGUAUGGCAACGCUGAGCCAAGCUUCGGCGCCUGCGCCGAUGAAGGUGUAGAGACUAGACGGCACCCACCUAAGGCGAACGGUAUGGUGAAGGCAUAGUCGAGGGAGAGGCGAAAGUCACACAAACCGG [C82U A145G C150G C169G U176A] | 0.01
5 | GUGCCUUGCGCCGGGAAACCACGCAAGGGAUGGUGUCAAAUUCGGCGAAACCUAAGCGCCCGCCCGGGCGUAUGGCAACGCUGAGCCAAGCUUCGGCGCCUGCGCCGAUGAAGGUGUAGAGACUAGACGGCACCCACCUAAGGCGAACGGUAUGGUGAAGGCAUAGUCGAGGGAGCGGCGAAAGUCACACAAACCGG [C82U A145G C150G C169G U176C] | 0.0124
6 | GUGCCUUGCGCCGGGAAACCACGCAAGGGAUGGUGUCAAAUUCGGCGAAACCUAAGCGCCCGCCCGGGCGUAUGGCAACGCUGAGCCAAGCUUCGGCGCCUGCGCCGAUGAAGGUGUAGAGACUAGACGGCACCCACCUAAGGCGAACGUUAUGGUGAAGGCAUAGUCGAGGGAGCGGCGAAAGUCACACAAACCGG [C82U A145G C150U C169G U176C] | 0.0172
7 | GUGCCUUGCGCCGGGAAACCACGCAAGGGAUGGUGUCAAAUUCGGCGAAACCUAAGCGCCCGCCCGGGCGUAUGGCAACGCUGAGCCAAGCUUCGGCGCCUGCGCCGAUGAAGGUGUAGAGACUAGACGGCACCCACCUAAGGCGAACGUUAUGGUGAAGGCAUAGUCGAGGGAGAGGCGAAAGUCACACAAACCGG [C82U A145G C150U C169G U176A] | 0.0129
8 | GUGCCUUGCGCCGGGAAACCACGCAAGGGAUGGUGUCAAAUUCGGCGAAACCUAAGCGCCCGCCCGGGCGUAUGGCAACGCUGAGCCAAGCUUCGGCGCCUGCGCCGAUGAAGGUGUAGAGACUAGACGGCACCCACCUAAGGCGAACGUUAUGGUGAAGGCAUAGUCGAGGGAGGGGCGAAAGUCACACAAACCGG [C82U A145G C150U C169G U176G] | 0.00503
9 | GUGCCUUGCGCCGGGAAACCACGCAAGGGAUGGUGUCAAAUUCGGCGAAACCUAAGCGCCCGCCCGGGCGUAUGGCAACGCUGAGCCAAGCUUCGGCGCCUGCGCCGAUGAAGGUGUAGAGACUAGACGGCACCCACCUAAGGCGAACGGUAUGGUGAAGGCAUAGUCCAGGGAGAGGCGAAAGUCACACAAACCGG [C82U A145G C150G U176A] | 0.0372
10 | GUGCCUUGCGCCGGGAAACCACGCAAGGGAUGGUGUCAAAUUCGGCGAAACCUAAGCGCCCGCCCGGGCGUAUGGCAACGCUGAGCCAAGCUUCGGCGCCUGCGCCGAUGAAGGUGUAGAGACUAGACGGCACCCACCUAAGGCGAACGGUAUGGUGAAGGCAUAGUCCAGGGAGCGGCGAAAGUCACACAAACCGG [C82U A145G C150G U176C] | 0.0584
11 | GUGCCUUGCGCCGGGAAACCACGCAAGGGAUGGUGUCAAAUUCGGCGAAACCUAAGCGCCCGCCCGGGCGUAUGGCAACGCUGAGCCAAGCUUCGGCGCCUGCGCCGAUGAAGGUGUAGAGACUAGACGGCACCCACCUAAGGCGAACGGUAUGGUGAAGGCAUAGUCCAGGGAGGGGCGAAAGUCACACAAACCGG [C82U A145G C150G U176G] | 0.0108
12 | GUGCCUUGCGCCGGGAAACCACGCAAGGGAUGGUGUCAAAUUCGGCGAAACCUAAGCGCCCGCCCGGGCGUAUGGCAACGCUGAGCCAAGCUUCGGCGCCUGCGCCGAUGAAGGUGUAGAGACUAGACGGCACCCACCUAAGGCGAACGUUAUGGUGAAGGCAUAGUCCAGGGAGUGGCGAAAGUCACACAAACCGG [C82U A145G C150U] | 0.527
13 | GUGCCUUGCGCCGGGAAACCACGCAAGGGAUGGUGUCAAAUUCGGCGAAACCUAAGCGCCCGCCCGGGCGUAUGGCAACGCUGAGCCAAGCUUCGGCGCCUGCGCCGAUGAAGGUGUAGAGACUAGACGGCACCCACCUAAGGCGAACGUUAUGGUGAAGGCAUAGUCGAGGGAGUGGCGAAAGUCACACAAACCGG [C82U A145G C150U C169G] | 0.0102
14 | GUGCCUUGCGCCGGGAAACCACGCAAGGGAUGGUGUCAAAUUCGGCGAAACCUAAGCGCCCGCCCGGGCGUAUGGCAACGCUGAGCCAAGCUUCGGCGCCUGCGCCGAUGAAGGUGUAGAGACUAGACGGCACCCACCUAAGGCGAACGUUAUGGUGAAGGCAUAGUCAAGGGAGUGGCGAAAGUCACACAAACCGG [C82U A145G C150U C169A] | 0.0113
15 | GUGCCUUGCGCCGGGAAACCACGCAAGGGAUGGUGUCAAAUUCGGCGAAACCUAAGCGCCCGCCCGGGCGUAUGGCAACGCUGAGCCAAGCUUCGGCGCCUGCGCCGAUGAAGGUGUAGAGACUAGACGGCACCCACCUAAGGCGAACGUUAUGGUGAAGGCAUAGUCUAGGGAGUGGCGAAAGUCACACAAACCGG [C82U A145G C150U C169U] | 0.0153
